Tests used:
MS2 coat protein [1] = test: apparent KD of MS2 coat protein; designed switch direction (-1 OFF switch, 1 ON switch): 1; higher = weaker reporter binding; conditions: Eterna round: R98
Description: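 RNA-MaP: designed FMN/MS2 RNA switches (84 nt design region) are transcribed on-chip within common flanks and titrated with SNAP-549-labelled MS2 coat protein (about 1-3000 nM) in 100 mM Tris pH 7.5, 80 mM KCl, 4 mM MgCl2, without or with 200 uM FMN. Median apparent KD per design; activation ratio = KD,OFF / KD,ON.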

MS2 coat protein [2] = test: apparent KD of MS2 coat protein, switch ON state; designed switch direction (-1 OFF switch, 1 ON switch): 1; higher = weaker reporter binding; conditions: FMN input: 0 or 200 uM; Eterna round: R93 (includes R88 designs)
In short: (§1)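 Designed RNA switches were made by on-chip transcription from Illumina sequencing clusters and then titrated with SNAP-549-labelled MS2 coat protein. Twofold steps ran from 0.7 or 1.5 nM to 3 µM, each lasting 0.8–1.5 h early and 10–20 min late, in 100 mM Tris-HCl pH 7.5, 80 mM KCl, 4 mM MgCl2, without or with constant ligand. Apparent KD is the per-design median of normalised cluster binding-curve fits.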

MS2 coat protein [3] = test: apparent KD of MS2 coat protein, switch OFF state (with FMN for OFF switches, without FMN for ON switches); designed switch direction (-1 OFF switch, 1 ON switch): 1; higher = weaker reporter binding; conditions: FMN input: 0 or 200 uM; Eterna round: R93 (includes R88 designs)
In short: as §1

| Sequence | apparent KD of MS2 coat protein (MS2 coat protein [1]; input ligand: FMN 200 uM) | apparent KD of MS2 coat protein (MS2 coat protein [1]; input ligand: none) | apparent KD of MS2 coat protein (MS2 coat protein [2]) | apparent KD of MS2 coat protein (MS2 coat protein [3]) |
| --- | --- | --- | --- | --- |
| AGCGGUAGGACAGGAUAUGGUGACUUCAAGCGGCCAGAAGGGUCCCGACAUGAGGAUCACCCAUGUCUUCCAGGCAGGAAGCGC [Bequques] | 443 nM | 239 nM |  |  |
| UUUAUUUUUAGAGGAUAUAUAGAGAGAGAGAGAAUAGAAGGCUAAACAUACAUGAACAUGAGGAUCACCCAUGUCACCCAUGUU [Attempt 2] | 34.3 nM | 28.3 nM |  |  |
| CGGAUCGCAUGAGGAUAUGGUCAGCUUUGCUGACCAGAAGGCAUGUCAAUAGACAUGAGGAUCACCCAUGUAGUUAAGAUCCGA [Mat - Same State NG 1 - JL Mod - D17] | 45.5 nM | 644 nM |  |  |
| GUCGAAUUCUUAGGAUAUCGAGUGGAAUACACUCGAGAAGGAAGAUAUACCUGAGGAUCACCCAGGUUAAACUGAACGACAAUA [Same State NG1 - A3C, U17G Submission 7C] | 17.6 nM | 17.6 nM |  |  |
| CCGAAUGUCACAGGAUAUGGUCCGGGCACGCGACCAGAAGGGUGAUCUCACAUGAGGAUCACCCAUGUGUAGGCGUUAGACUAC [Dierata] | 191 nM | 96.6 nM |  |  |
| UAGUGUUCUCGAGGAUAUGGGUUCCGUUUUAGCCCAGAAGGCGAACAUGAGGAUCACCCAUGUAUGAAUACACAGCAGAAUUGU [Teedri] | 153 nM | 1750 nM |  |  |
| CACGUCCUCACAGGAUAUGCUGGACUUUGUCCAGCAGAAGGGUGAAACAUGAGGAUCACCCAUGUAAGGACGUGUAUAUUUAAU [Denovo 21] | 1470 nM | 187 nM |  |  |
| AAAAUAUAAUAUAUUAACAUGAGGAUCACCCAUGUCGCUAGACAGGAUAUAUAAAAUAAAAUAAAGUAGAAGGGUCAUAUAAUA [LRO003_SS NG 3] | 93.9 nM | 56.4 nM |  |  |
| ACGUUAAUUCGAGGAUAUCGGUGAUUUAUAUUACGAGAAGGCGAUAAUUGUGAACAACUUAUAGACAUGAGGAUCACCCAUGUA [JR_SSNG1_Sub065] | 21.3 nM | 28.6 nM |  |  |
| AAACUUAUCACAGGAUAUUCCUGAGGAUGCCAGGGAGAAGGGUGACUCUUGGGACAUGAGGAUCACCCAUGUUCUGUGGGAAAA [Xeusdior] | 190 nM | 182 nM |  |  |
| UCACUCACGUUAGGAUAUGGAUCGGAAAACGAUCCAGAAGGAACCUGCAAACCUGAGGAACACCCAGGUUCCAAUAACGAGUGA [SameSame 8 - Jieux - Same State NG 1] | 745 nM | 839 nM |  |  |
| GGGUGGGUCACAGGAUAUCCCGUGAGCCACAUGAGGAUCACCCAUGUAUCACGACGAAAGAAGAAGGAGAAGGGUGACCCUGAU [Tibiiste] | 29.8 nM | 40.7 nM |  |  |
| UCCGAUGUACAUGAGGAUCACCCAUGUCAUAUGCCCGUGACACAGGAUAUCCAGGGUAGGCCAAAGGAGAAGGGUGAUCCGCGG [Lelete] | 122 nM | 51.8 nM |  |  |
| GUAACAUGAGGAUCACCCAUGUCGUGCUAGAUGAGUUCUGGUGAGGAUAUACAUGGUAAAUAACUGUAGAAGGCACUGGGUACA [SameState #67 NG3] | 44.7 nM | 133 nM |  |  |
| GACAAACAUGAGGAUCACCCAUGUAGAAAUAUGGGAGGAUAUACACAGACGAAAGUCAAAGUAGAAGGCCUAAAAG [77%, Mat - Mod of Eli - With 2 more C's] |  |  | 28.5 nM | 137 nM |
| AACAAUCUAUCUGAGGAUAUCAUGUCAAAGACAUGAGGAUCACCCAUGUCCAGGAAAACUGGUCAUGAGAAGGCAGAUAGAUUGA [SS2: 1111] |  |  | 51.3 nM | 887 nM |
| GAGCCGCGGGCACAGGAUAUGCUCGGGCAAACAUGAGGAUCACCCAUGUGCGGCCUAAAUACGACGCAGAAGGGUGCUUGUGUGU [Lausisan] |  |  | 36.5 nM | 102 nM |
| AUAAAACAUGAGGAUCACCCAUGUCAGAAAUGGCAAGGAUAUAGAAAAUAAAAAUAAAAACUAGAAGGUGCAAAAU [Meechl SS1 R2 m1] |  |  | 74.9 nM | 198 nM |

— the supplement of paper PMC9170038
